Square brackets hold non-standard residues; d marks the D form. Ends that are not written are not given here.
B1: SEQ ID NO: 57 (peptide)
peptide: LERYHHS[dA]RSSLRPYTK-NH2
modifications: N-terminus assumed
SMILES: CC(C)C[C@H](NC(=O)[C@H](CO)NC(=O)[C@H](CO)NC(=O)[C@H](CCCNC(=N)N)NC(=O)[C@@H](C)NC(=O)[C@H](CO)NC(=O)[C@H](Cc1c[nH]cn1)NC(=O)[C@H](Cc1c[nH]cn1)NC(=O)[C@H](Cc1ccc(O)cc1)NC(=O)[C@H](CCCNC(=N)N)NC(=O)[C@H](CCC(=O)O)NC(=O)[C@@H](N)CC(C)C)C(=O)N[C@@H](CCCNC(=N)N)C(=O)N1CCC[C@H]1C(=O)N[C@@H](Cc1ccc(O)cc1)C(=O)N[C@H](C(=O)N[C@@H](CCCCN)C(N)=O)[C@@H](C)O

biological target: SNAP tagged-CXC4 receptor labeled with terbium (Tag-lite CXCR4 cells, HEK293) (UniProt P61073); assay: HTRF competition on Tag-lite CXCR4 HEK293 cells; competitor labelled CXCL12
Sequence (P61073 whole entry): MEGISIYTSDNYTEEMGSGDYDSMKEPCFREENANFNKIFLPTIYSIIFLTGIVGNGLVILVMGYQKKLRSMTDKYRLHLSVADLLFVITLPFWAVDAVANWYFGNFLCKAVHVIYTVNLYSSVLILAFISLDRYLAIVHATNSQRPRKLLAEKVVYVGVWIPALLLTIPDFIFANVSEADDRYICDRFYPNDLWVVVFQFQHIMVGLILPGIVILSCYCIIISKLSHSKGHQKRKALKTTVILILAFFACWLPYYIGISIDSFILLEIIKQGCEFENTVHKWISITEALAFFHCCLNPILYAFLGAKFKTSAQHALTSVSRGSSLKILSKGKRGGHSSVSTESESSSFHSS

IC50 [nM] | Percent Inhibition of CXCR4/CXCL12 Binding (400 nM peptide) [%] | Binder
573 | -2 | LRRYHHSVRSSLRPYTK-NH2 [SEQ ID NO: 16]
– | 76 | LERYHHT[dA]RSSLRPYTK [SEQ ID NO: 40]
5 | 79 | LERYHHSVRSSLRPYTK-NH2 [SEQ ID NO: 56]
7 | 77 | B1
